According to PMC9603081, “Transcription Factors as Important Regulators of Changes in Behavior through Domestication of Gray Rats: Quantitative Data from RNA Sequencing”:

B1: HBB rs33980857 T-29A (dsDNA)
DNA 1: CAGGGCTGGGCAAAAAAGTCAGGGCA
DNA 2: TGCCCTGACTTTTTTGCCCAGCCCTG
B2: HBB WT (dsDNA)
DNA 1: CAGGGCTGGGCATAAAAGTCAGGGCA
DNA 2: TGCCCTGACTTTTATGCCCAGCCCTG
B3: HBD WT (dsDNA)
DNA 1: ACAGGACCAGCATAAAAGGCAGGGCA
DNA 2: TGCCCTGCCTTTTATGCTGGTCCTGT
B4: HBD rs34166473 T-30C (dsDNA)
DNA 1: ACAGGACCAGCACAAAAGGCAGGGCA
DNA 2: TGCCCTGCCTTTTGTGCTGGTCCTGT
B5: HBB rs33931746 A-27T (dsDNA)
DNA 1: CAGGGCTGGGCATATAAGTCAGGGCA
DNA 2: TGCCCTGACTTATATGCCCAGCCCTG
B6: HBB rs34598529 A-28G (row 10) (dsDNA)
DNA 1: CAGGGCTGGGCATGAAAGTCAGGGCA
DNA 2: TGCCCTGACTTTCATGCCCAGCCCTG
B7: HBB rs281864525 A-25C (dsDNA)
DNA 1: CAGGGCTGGGCATAAACGTCAGGGCA
DNA 2: TGCCCTGACGTTTATGCCCAGCCCTG
B8: HBB rs34500389 C-32T (dsDNA)
DNA 1: CAGGGCTGGGTATAAAAGTCAGGGCA
DNA 2: TGCCCTGACTTTTATACCCAGCCCTG
B9: HBD rs35518301 A-31G (dsDNA)
DNA 1: ACAGGACCAGCGTAAAAGGCAGGGCA
DNA 2: TGCCCTGCCTTTTACGCTGGTCCTGT
B10: HBB rs34598529 A-28G (row 2) (dsDNA)
DNA 1: CAGGGCTGGGCATAGAAGTCAGGGCA
DNA 2: TGCCCTGACTTCTATGCCCAGCCCTG
B11: HBB rs63750953 del -25AA (dsDNA)
DNA 1: CCAGGGCTGGGCATAAGTCAGGGCAG
DNA 2: CTGCCCTGACTTATGCCCAGCCCTGG
B12: HBB rs34598529 A-28C (dsDNA)
DNA 1: CAGGGCTGGGCATACAAGTCAGGGCA
DNA 2: TGCCCTGACTTGTATGCCCAGCCCTG
B13: HBB rs33980857 T-29G (dsDNA)
DNA 1: CAGGGCTGGGCAGAAAAGTCAGGGCA
DNA 2: TGCCCTGACTTTTCTGCCCAGCCCTG
B14: HBB rs33980857 T-29C (dsDNA)
DNA 1: CAGGGCTGGGCACAAAAGTCAGGGCA
DNA 2: TGCCCTGACTTTTGTGCCCAGCCCTG
B15: ASCL3 WT (dsDNA)
DNA 1: TCGAAAAATAAAATAAAATAAAACAT
DNA 2: ATGTTTTATTTTATTTTATTTTTCGA

The molecules below were run against TBP (TATA-binding protein) (Homo sapiens) (UniProt P20226) (assay: EMSA). Conditions: EMSA association kinetics, 0.3 nM TBP, four ODN concentrations; buffer, salt, pH and temperature not in the material.
Sequence of TBP (TATA-binding protein) (Homo sapiens) (P20226 whole entry): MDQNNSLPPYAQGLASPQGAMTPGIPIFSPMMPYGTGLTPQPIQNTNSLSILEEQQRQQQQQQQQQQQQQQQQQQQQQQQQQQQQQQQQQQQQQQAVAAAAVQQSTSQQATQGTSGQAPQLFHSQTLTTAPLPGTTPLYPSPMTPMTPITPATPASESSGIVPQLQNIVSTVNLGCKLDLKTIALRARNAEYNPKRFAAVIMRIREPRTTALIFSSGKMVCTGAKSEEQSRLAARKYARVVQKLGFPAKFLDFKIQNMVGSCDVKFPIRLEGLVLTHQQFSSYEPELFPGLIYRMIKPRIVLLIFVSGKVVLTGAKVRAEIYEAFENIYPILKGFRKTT

Q: “TCGAAAAATAAAACAAAATAAAACAT (double strand) [ASCL3 rs1049743008 T-45c]” was tested. Which Kd did it give?
A: 17 nM

The molecules below were run against T1, TBP (TATA-binding protein) (Homo sapiens, UniProt P20226 1-339) (assay: EMSA; EMSA association kinetics, 0.3 nM TBP, four ODN concentrations; buffer, salt, pH and temperature not in the material). Conditions: protein: recombinant; label: 32P both strands; blunt.
T1 sequence (P20226 whole entry): as the sequence (P20226 whole entry) above

Q: Which Kd does the source give for B1 here?
A: 110 nM

Q: B2 was tested. Which Kd did it give?
A: 50.1 nM

Q: Which Kd does the source give for B3 here?
A: 70.3 nM

Q: How did the Kd turn out when B4 was run?
A: 170 nM

Q: B5 was tested. Which Kd did it give?
A: 59.9 nM

Q: For B6, which Kd is on record?
A: 499 nM

Q: B7 was tested. Which Kd did it give?
A: 150 nM

Q: With B8 as the molecule, how does the Kd read?
A: 31.9 nM

Q: Which Kd does the source give for B9 here?
A: 99.8 nM

Q: B10 was tested. Which Kd did it give?
A: 557 nM

Q: How did the Kd turn out when B11 was run?
A: 150 nM

Q: For B12, which Kd is on record?
A: 499 nM

Q: B13 was tested. Which Kd did it give?
A: 110 nM

Q: B14 was tested. Which Kd did it give?
A: 140 nM

These molecules were tested against T1, TBP (TATA-binding protein) (assay: EMSA; association kinetics, 0.3 nM TBP; Table S2 in vitro -ln(KD) 15.05 disagrees; EMSA association kinetics, 0.3 nM TBP, four ODN concentrations; buffer, salt, pH and temperature not in the material). Conditions: protein: recombinant; label: 32P both strands; blunt.

Q: With B15 as the molecule, how does the Kd read?
A: 12 nM
